Test results published in article PMC2515308, “Structural characterization of CA1462, the Candida albicans thiamine pyrophosphokinase” (BMC Structural Biology, 2008).

Columns and labels:
[1] = target: Candida albicans thiamine pyrophosphokinase CA1462 (Candida albicans); test: SEC; gel filtration of the purified TPK proteins on a Sephacryl S200 HR column
[2] = target: the molecule itself; test: as above

Molecule	stoichiometry N [1]	stoichiometry N [2]
Candida albicans thiamine pyrophosphokinase CA1462 (enzyme)	2	
Saccharomyces cerevisiae thiamine pyrophosphokinase YOR143C (enzyme) GHHHQLSEECIENPERIKIGTDLINIRNKMNLKELIHPNEDENSTLLILNQKIDIPRPLFYKIWKLHDLKVCADGAANRLYDYLDDDETLRIKYLPNYIIGDLDSLSEKVYKYYRKNKVTIIKQTTQYSTDFTKCVNLISLHFNSPEFRSLISNKDNLQSNHGIELEKGIHTLYNTMTESLVFSKVTPISLLALGGIGGRFDQTVHSITQLYTLSENASYFKLCYMTPTDLIFLIKKNGTLIEYDPQFRNTCIGNCGLLPIGEATLVKETRGLKWDVKNWPTSVVTGRVSSSNRFVGDNCCFIDTKDDIILNVEIFVDKLIDFLQLDGDLEAA		2
